Measured values from patent US20210171647A1 (WUXI BIOLOGICS SHANGHAI, published 2021).

Experiments:
Assay in all cases: ELISA, antibody coated, OX40-ECD.His mutant supernatant; relative to silent alanine substitutions;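 further: captured OX40 mutant protein detected with HRP-labelled anti-His antibody, absorbance read-out, scaled to the mean signal of control mutants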
human OX40-ECD.His Q103A = biological target: T1, human OX40-ECD.His Q103A (human, UniProt P43489 29-214)
T1 construct: extracellular domain; not shown: C-terminal His-tag
T1 sequence (looked up): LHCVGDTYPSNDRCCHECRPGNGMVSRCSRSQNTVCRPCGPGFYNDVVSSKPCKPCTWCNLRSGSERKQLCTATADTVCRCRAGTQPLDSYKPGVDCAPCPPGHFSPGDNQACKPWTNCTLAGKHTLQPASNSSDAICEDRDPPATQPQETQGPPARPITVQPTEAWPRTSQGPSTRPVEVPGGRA

human OX40-ECD.His A173G = biological target: T2, human OX40-ECD.His A173G (human, UniProt P43489 29-214)
T2 construct: extracellular domain; not shown: C-terminal His-tag
T2 sequence (looked up): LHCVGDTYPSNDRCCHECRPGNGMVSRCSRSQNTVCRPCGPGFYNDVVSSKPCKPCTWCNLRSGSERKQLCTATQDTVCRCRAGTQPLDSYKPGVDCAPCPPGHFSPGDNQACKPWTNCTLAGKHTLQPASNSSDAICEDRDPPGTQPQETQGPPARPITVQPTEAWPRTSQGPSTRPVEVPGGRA

human OX40-ECD.His Y119A = biological target: T3, human OX40-ECD.His Y119A (human, UniProt P43489 29-214)
T3 construct: extracellular domain; not shown: C-terminal His-tag
T3 sequence (looked up): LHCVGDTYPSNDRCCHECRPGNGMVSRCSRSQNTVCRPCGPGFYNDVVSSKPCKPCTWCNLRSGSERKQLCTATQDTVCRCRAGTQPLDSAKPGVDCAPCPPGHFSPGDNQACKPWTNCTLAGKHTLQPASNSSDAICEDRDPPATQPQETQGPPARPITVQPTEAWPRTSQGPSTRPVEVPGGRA

human OX40-ECD.His P37A = biological target: T4, human OX40-ECD.His P37A (human, UniProt P43489 29-214)
T4 construct: extracellular domain; not shown: C-terminal His-tag
T4 sequence (looked up): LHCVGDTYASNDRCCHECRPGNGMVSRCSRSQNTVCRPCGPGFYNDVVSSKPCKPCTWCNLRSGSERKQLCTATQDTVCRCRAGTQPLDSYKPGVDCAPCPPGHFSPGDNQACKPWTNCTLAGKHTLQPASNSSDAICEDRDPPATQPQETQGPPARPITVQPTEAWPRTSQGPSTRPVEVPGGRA

human OX40-ECD.His R90A = biological target: T5, human OX40-ECD.His R90A (human, UniProt P43489 29-214)
T5 construct: extracellular domain; not shown: C-terminal His-tag
T5 sequence (looked up): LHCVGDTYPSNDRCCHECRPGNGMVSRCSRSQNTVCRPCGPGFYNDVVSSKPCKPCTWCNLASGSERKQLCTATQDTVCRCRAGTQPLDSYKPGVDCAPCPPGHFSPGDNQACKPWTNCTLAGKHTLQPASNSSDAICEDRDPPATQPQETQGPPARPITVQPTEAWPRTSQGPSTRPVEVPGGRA

human OX40-ECD.His L98A = biological target: T6, human OX40-ECD.His L98A (human, UniProt P43489 29-214)
T6 construct: extracellular domain; not shown: C-terminal His-tag
T6 sequence (looked up): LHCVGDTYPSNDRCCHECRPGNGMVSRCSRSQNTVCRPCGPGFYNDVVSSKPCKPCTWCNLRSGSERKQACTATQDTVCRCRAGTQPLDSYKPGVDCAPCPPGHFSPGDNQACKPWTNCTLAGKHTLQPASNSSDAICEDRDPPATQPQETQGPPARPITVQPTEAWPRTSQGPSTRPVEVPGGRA

human OX40-ECD.His F71A = biological target: T7, human OX40-ECD.His F71A (human, UniProt P43489 29-214)
T7 construct: extracellular domain; not shown: C-terminal His-tag
T7 sequence (looked up): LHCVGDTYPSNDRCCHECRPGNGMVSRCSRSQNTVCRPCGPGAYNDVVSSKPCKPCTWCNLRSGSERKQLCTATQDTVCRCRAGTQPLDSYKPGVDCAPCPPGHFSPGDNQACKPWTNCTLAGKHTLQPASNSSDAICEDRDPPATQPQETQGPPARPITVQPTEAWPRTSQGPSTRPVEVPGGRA

human OX40-ECD.His P83A = biological target: T8, human OX40-ECD.His P83A (human, UniProt P43489 29-214)
T8 construct: extracellular domain; not shown: C-terminal His-tag
T8 sequence (looked up): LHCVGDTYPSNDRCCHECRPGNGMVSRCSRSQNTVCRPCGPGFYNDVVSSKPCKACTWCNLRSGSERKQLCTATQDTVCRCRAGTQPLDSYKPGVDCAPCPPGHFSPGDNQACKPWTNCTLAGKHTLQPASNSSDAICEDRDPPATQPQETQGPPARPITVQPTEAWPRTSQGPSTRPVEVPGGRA

human OX40-ECD.His T102A = biological target: T9, human OX40-ECD.His T102A (human, UniProt P43489 29-214)
T9 construct: extracellular domain; not shown: C-terminal His-tag
T9 sequence (looked up): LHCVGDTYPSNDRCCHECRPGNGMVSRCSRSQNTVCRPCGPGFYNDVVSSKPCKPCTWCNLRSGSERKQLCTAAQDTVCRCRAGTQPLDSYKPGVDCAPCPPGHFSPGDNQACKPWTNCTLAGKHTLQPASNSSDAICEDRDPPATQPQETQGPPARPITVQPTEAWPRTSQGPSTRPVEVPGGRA

human OX40-ECD.His D117A = biological target: T10, human OX40-ECD.His D117A (human, UniProt P43489 29-214)
T10 construct: extracellular domain; not shown: C-terminal His-tag
T10 sequence (looked up): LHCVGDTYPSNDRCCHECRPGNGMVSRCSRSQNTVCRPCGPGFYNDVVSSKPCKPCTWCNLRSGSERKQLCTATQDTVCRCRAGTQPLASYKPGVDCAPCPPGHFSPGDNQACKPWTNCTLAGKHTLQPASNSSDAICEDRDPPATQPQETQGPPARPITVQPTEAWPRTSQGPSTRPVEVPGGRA

Fold Change (human OX40-ECD.His Q103A): 0.974 | Fold Change (human OX40-ECD.His A173G): 0.993 | Fold Change (human OX40-ECD.His Y119A): 0.995 | Fold Change (human OX40-ECD.His P37A): 1.01 | Fold Change (human OX40-ECD.His R90A): 1.01 | Fold Change (human OX40-ECD.His L98A): 1.01 | Fold Change (human OX40-ECD.His F71A): 0.866 | Fold Change (human OX40-ECD.His P83A): 0.918 | Fold Change (human OX40-ECD.His T102A): 0.94 | Fold Change (human OX40-ECD.His D117A): 0.951
B1: 1.134.9-u1-IgG1L (antibody, V domains shown)
VH: QVQLQESGPGLVKPSGTLSLTCAVSGGSISSYNWWSWVRQPPGKGLEWIGEIYHGGNTNYNPSLKSRVTMSVDNSKNQFSLKLSSVTAADTAVYYCARAPGDWGGSPYFDFWGQGTLVTVSS
VL: SSELTQDPAVSVALGQTVRITCQGDNLRTYYASWYQQKPGQAPILLIYGRNKRPSGIPDRFSGSSSGNTASLTITGAQAEDEAAYYCNSRDSSGNPVVFGGGTKLTVL
notes: fully human IgG1, lambda
